Reference: article PMC5028891 (Scientific Reports, 2016)

Molecular target: T1, human claudin-4 (full-length), wild type (human, UniProt O14493 1-209)
T1 construct: also called claudin-4 wild type; WT
T1 sequence (looked up): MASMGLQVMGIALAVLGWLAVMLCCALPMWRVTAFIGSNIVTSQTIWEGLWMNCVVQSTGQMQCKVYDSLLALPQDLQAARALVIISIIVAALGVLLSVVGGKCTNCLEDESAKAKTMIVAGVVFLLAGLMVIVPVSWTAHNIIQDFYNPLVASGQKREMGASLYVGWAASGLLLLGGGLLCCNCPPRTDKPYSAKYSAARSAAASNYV
Test: pull-down
Settings: both partners purified

B1: glutathione-S-transferase-tagged C-CPE (residues 185′–319′), wild type (domain or fragment)
chain: RCVLTVPSTDIEKEILDLAAATERLNLTDALNSNPAGNLYDWRSSNSYPWTQKLNLHLTITATGQKYRILASKIVDFNIYSNNFNNLVKLEQSLGDGVKDHYVDISLDAGQYVLVMKANSSYSGNYPYSILFQKF
Does B1 bind?
Result: binds
